Results reported in patent US20250218531A1 (ABSCI, published 2025).
Changes are numbered by the printed parent chain. Where two headings read alike, the source gives them in different places.

Tests used:
[1] = molecular target: T1, human vascular endothelial growth factor A (VEGF-A) (human, UniProt P15692 220-313); assay: SPR, Fab format
T1 sequence: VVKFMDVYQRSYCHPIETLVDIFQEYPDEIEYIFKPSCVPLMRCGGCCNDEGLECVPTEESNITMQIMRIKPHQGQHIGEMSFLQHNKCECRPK

[2] = molecular target: T2, human epidermal growth factor receptor 2 (HER2) extracellular domain (human, UniProt P04626 23-629); assay: SPR, table row 4
[3] = molecular target: T2, human epidermal growth factor receptor …; assay: SPR, table row 18
[4] = molecular target: T2, human epidermal growth factor receptor …; assay: SPR, table row 5
[5] = molecular target: T2, human epidermal growth factor receptor …; assay: SPR, table row 10
[6] = molecular target: T2, human epidermal growth factor receptor …; assay: SPR, table row 28
[7] = molecular target: T2, human epidermal growth factor receptor …; assay: SPR, table row 40
[8] = molecular target: T2, human epidermal growth factor receptor …; assay: SPR, table row 9
[9] = molecular target: T2, human epidermal growth factor receptor …; assay: SPR, table row 21
[10] = molecular target: T2, human epidermal growth factor receptor …; assay: SPR, table row 27
[11] = molecular target: T2, human epidermal growth factor receptor …; assay: SPR, table row 25
[12] = molecular target: T2, human epidermal growth factor receptor …; assay: SPR, table row 39
[13] = molecular target: T2, human epidermal growth factor receptor …; assay: SPR, table row 38
[14] = molecular target: T2, human epidermal growth factor receptor …; assay: SPR, table row 42
[15] = molecular target: T2, human epidermal growth factor receptor …
[16] = molecular target: T2, human epidermal growth factor receptor …; assay: SPR, table row 26
[17] = molecular target: T2, human epidermal growth factor receptor …; assay: SPR, table row 7
[18] = molecular target: T2, human epidermal growth factor receptor …; assay: SPR, table row 33
[19] = molecular target: T2, human epidermal growth factor receptor …; assay: SPR, table row 30
[20] = molecular target: T2, human epidermal growth factor receptor …; assay: SPR, table row 34
[21] = molecular target: T2, human epidermal growth factor receptor …; assay: SPR, table row 29
[22] = molecular target: T2, human epidermal growth factor receptor …; assay: SPR, table row 32
[23] = molecular target: T2, human epidermal growth factor receptor …; assay: SPR, table row 35

B1: De novo ranibizumab HCDR3 variant ASGNFSYPDDYGMDW (SEQ ID NO: 50) (Fab, V domains shown)
VH: EVQLVESGGGLVQPGGSLRLSCAASGYDFTHYGMNWVRQAPGKGLEWVGWINTYTGEPTYAADFKRRFTFSLDTSKSTAYLQMNSLRAEDTAVYYCASGNFSYPDDYGMDWWGQGTLVTVSS
VL: DIQLTQSPSSLSASVGDRVTITCSASQDISNYLNWYQQKPGKAPKVLIYFTSSLHSGVPSRFSGSGSGTDFTLTISSLQPEDFATYYCQQYSTVPWTFGQGTKVEIKR
Work on B1 yielded a Kd [1] of 0.0482 µM.

B2: Trast_Her2_131 (Fab, V domains shown)
VH: EVQLVESGGGLVQPGGSLRLSCAASGFNIKDTYIHWVRQAPGKGLEWVARIYPTNGYTRYADSVKGRFTISADTSKNTAYLQMNSLRAEDTAVYYCARDGRYGYQDYWGQGTLVTVSS
VL: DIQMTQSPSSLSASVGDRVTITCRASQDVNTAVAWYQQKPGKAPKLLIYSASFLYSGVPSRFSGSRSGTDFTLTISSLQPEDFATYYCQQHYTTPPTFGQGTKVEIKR
notes: also called HCDR3 ARDGRYGYQDY
For B2, the Kd [2] was 0.001 µM, the koff [2] was 1e-05 s⁻¹ and the kon [2] was 9990 M⁻¹ s⁻¹. For the same binder, the Kd [3] was 0.00806 µM, the koff [3] was 0.000202 s⁻¹ and the kon [3] was 25000 M⁻¹ s⁻¹.

B3: Trast_Her2_51 (Fab, V domains shown)
VH: B2 VH with R98K, D99H, G100Y, R101D, Y102G, G103W, Y104I, Q105L, D106A
VL: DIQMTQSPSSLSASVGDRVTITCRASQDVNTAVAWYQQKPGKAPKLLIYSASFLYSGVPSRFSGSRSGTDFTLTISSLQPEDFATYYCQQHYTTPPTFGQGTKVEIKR
notes: also called HCDR3 AKHYDGWILAY
Binder B3 has a Kd [4] of 0.00103 µM, a koff [4] of 1e-05 s⁻¹ and a kon [4] of 9680 M⁻¹ s⁻¹. It also gave a Kd [5] of 0.00289 µM, a koff [5] of 4.35e-05 s⁻¹ and a kon [5] of 15100 M⁻¹ s⁻¹.

B4: Trast_Her2_76 (Fab, V domains shown)
VH: B2 VH with R98M, G100F, R101K, Y102F, G103T, Y104R, Q105L, Y107L
VL: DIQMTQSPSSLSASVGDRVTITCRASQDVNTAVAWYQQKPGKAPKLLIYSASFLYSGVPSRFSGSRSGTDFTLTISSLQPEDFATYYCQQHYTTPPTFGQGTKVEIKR
notes: also called HCDR3 AMDFKFTRLDL
B4 was tested, and the Kd [6] was 0.0364 µM, the koff [6] was 0.00127 s⁻¹ and the kon [6] was 35000 M⁻¹ s⁻¹. For the same binder, the Kd [7] was 0.159 µM, the koff [7] was 0.00525 s⁻¹ and the kon [7] was 33100 M⁻¹ s⁻¹.

B5: Trast_Her2_50 (Fab, V domains shown)
VH: EVQLVESGGGLVQPGGSLRLSCAASGFNIKDTYIHWVRQAPGKGLEWVARIYPTNGYTRYADSVKGRFTISADTSKNTAYLQMNSLRAEDTAVYYCAKGWGVEPREFAYWGQGTLVTVSS
VL: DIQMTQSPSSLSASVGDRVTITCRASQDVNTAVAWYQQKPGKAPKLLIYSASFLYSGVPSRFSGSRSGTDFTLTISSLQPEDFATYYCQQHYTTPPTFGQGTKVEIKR
notes: also called HCDR3 AKGWGVEPREFAY
B5 showed a Kd [8] of 0.00271 µM, a koff [8] of 4.19e-05 s⁻¹ and a kon [8] of 15500 M⁻¹ s⁻¹.

B6: Trast_Her2_57 (Fab, V domains shown)
VH: B5 VH with G99P, W100Y, G101Y, V102Y, E103F, P104S, R105D, E106G, F107L, A108E
VL: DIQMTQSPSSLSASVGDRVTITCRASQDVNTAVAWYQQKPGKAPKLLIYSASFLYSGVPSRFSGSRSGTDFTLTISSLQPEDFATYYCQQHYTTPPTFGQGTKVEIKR
notes: also called HCDR3 AKPYYYFSDGLEY
B6 was tested, and the Kd [9] was 0.0156 µM, the koff [9] was 0.000321 s⁻¹ and the kon [9] was 20600 M⁻¹ s⁻¹. The Kd [10] was 0.0348 µM, the koff [10] was 0.000581 s⁻¹ and the kon [10] was 16700 M⁻¹ s⁻¹.

B7: Trast_Her2_229 (Fab, V domains shown)
VH: EVQLVESGGGLVQPGGSLRLSCAASGFNIKDTYIHWVRQAPGKGLEWVARIYPTNGYTRYADSVKGRFTISADTSKNTAYLQMNSLRAEDTAVYYCARFDRYGYYLGTWGQGTLVTVSS
VL: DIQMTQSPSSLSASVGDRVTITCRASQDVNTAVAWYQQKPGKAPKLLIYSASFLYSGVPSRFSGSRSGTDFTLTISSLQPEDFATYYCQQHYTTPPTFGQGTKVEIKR
notes: also called HCDR3 ARFDRYGYYLGT
For B7, the Kd [11] was 0.0304 µM, the koff [11] was 0.000635 s⁻¹ and the kon [11] was 20900 M⁻¹ s⁻¹. For the same binder, the Kd [12] was 0.114 µM, the koff [12] was 0.00201 s⁻¹ and the kon [12] was 17700 M⁻¹ s⁻¹.

B8: Trast_Her2_230 (Fab, V domains shown)
VH: B7 VH
VL: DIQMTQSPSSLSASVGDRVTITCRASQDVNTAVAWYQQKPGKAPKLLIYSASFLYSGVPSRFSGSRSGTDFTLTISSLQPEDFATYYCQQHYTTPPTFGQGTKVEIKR
notes: as for B7
For B8, the Kd [13] was 0.104 µM, the koff [13] was 0.0023 s⁻¹ and the kon [13] was 22100 M⁻¹ s⁻¹. It also gave a Kd [14] of 0.198 µM, a koff [14] of 0.0046 s⁻¹ and a kon [14] of 23300 M⁻¹ s⁻¹.

B9: Trast_Her2_70 (Fab, V domains shown)
VH: B7 VH with R98K, F99Y, R101Y, G103I, Y105D, L106F, G107D, T108I
VL: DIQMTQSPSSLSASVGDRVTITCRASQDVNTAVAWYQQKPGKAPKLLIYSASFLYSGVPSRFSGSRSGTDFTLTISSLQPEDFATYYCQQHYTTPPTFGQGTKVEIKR
notes: also called HCDR3 AKYDYYIYDFDI
B9 was tested, and the Kd [15] was 0.0194 µM, the koff [15] was 0.000369 s⁻¹ and the kon [15] was 19000 M⁻¹ s⁻¹. The Kd [16] was 0.0305 µM, the koff [16] was 0.000284 s⁻¹ and the kon [16] was 9320 M⁻¹ s⁻¹.

B10: Trast_Her2_56 (Fab, V domains shown)
VH: B7 VH with R98K, F99P, D100Y, R101Y, Y102F, G103N, Y105D, T108V
VL: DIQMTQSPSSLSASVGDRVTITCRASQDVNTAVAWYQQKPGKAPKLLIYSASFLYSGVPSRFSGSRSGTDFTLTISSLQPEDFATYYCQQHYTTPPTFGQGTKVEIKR
notes: also called HCDR3 AKPYYFNYDLGV
In the case of B10, the Kd [17] is reported as 0.00244 µM, the koff [17] is reported as 2.42e-05 s⁻¹ and the kon [17] is reported as 9940 M⁻¹ s⁻¹. The Kd [18] was 0.0568 µM, the koff [18] was 0.000933 s⁻¹ and the kon [18] was 16400 M⁻¹ s⁻¹.

B11: Trast_Her2_231 (Fab, V domains shown)
VH: B7 VH with D100G, R101I, Y102S, L106W, G107D, T108V
VL: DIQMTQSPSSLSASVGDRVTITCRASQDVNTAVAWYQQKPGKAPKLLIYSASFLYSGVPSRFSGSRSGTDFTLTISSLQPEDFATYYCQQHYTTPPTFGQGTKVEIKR
notes: also called HCDR3 ARFGISGYYWDV
B11 was tested, and the Kd [19] was 0.0433 µM, the koff [19] was 0.00106 s⁻¹ and the kon [19] was 24500 M⁻¹ s⁻¹. It also gave a Kd [20] of 0.0644 µM, a koff [20] of 0.0014 s⁻¹ and a kon [20] of 21800 M⁻¹ s⁻¹.

B12: Trast_Her2_58 (Fab, V domains shown)
VH: B7 VH with R98K, F99R, R101F, Y102G, G103R, Y104D, Y105W, L106F, G107A, T108Y
VL: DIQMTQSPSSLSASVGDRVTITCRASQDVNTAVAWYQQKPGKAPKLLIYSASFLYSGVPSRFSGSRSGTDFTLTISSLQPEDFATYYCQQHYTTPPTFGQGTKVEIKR
notes: also called HCDR3 AKRDFGRDWFAY
In the case of B12, the Kd [21] is reported as 0.0388 µM, the koff [21] is reported as 0.000582 s⁻¹ and the kon [21] is reported as 15000 M⁻¹ s⁻¹.

B13: Trast_Her2_59 (Fab, V domains shown)
VH: B7 VH with R98K, F99R, D100N, R101A, G103R, Y104G, Y105S, G107D, T108Y
VL: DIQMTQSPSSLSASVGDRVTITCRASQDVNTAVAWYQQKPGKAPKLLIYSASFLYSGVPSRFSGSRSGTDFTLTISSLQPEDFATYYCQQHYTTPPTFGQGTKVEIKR
notes: also called HCDR3 AKRNAYRGSLDY
In the case of B13, the Kd [22] is reported as 0.0511 µM, the koff [22] is reported as 0.000717 s⁻¹ and the kon [22] is reported as 14000 M⁻¹ s⁻¹. The Kd [23] was 0.0649 µM, the koff [23] was 0.00077 s⁻¹ and the kon [23] was 11900 M⁻¹ s⁻¹.
